Laboratory results taken from patent US20190367612A1 (Daiichi Sankyo, published 2019).

target: T1, human GPRC5D (human, UniProt Q9NZD1 1-345); assay: flow cytometry on KHM-1B cells (human GPRC5D), culture supernatant, PE anti-human IgG Fc, rMFI over human IgG isotype control
T1 construct: whole, on cells; also called hGPRC5D; G-protein coupled receptor family C group 5 member D
Method: Human multiple myeloma cell line KHM-1B cells expressing GPRC5D were adjusted to a concentration of 2×10⁶ cells/mL with PBS containing 5% FBS, inoculated in an amount of 100 μL/well to a 96-well U-bottomed microplate, and centrifuged to remove a supernatant. The culture supernatant of each humanized anti-GPRC5D antibody obtained in Example 8)-3-1 or Human IgG isotype control antibody (Calbiochem/Merck Millipore Corp.) adjusted to 14 ng/mL to 30 μg/mL was added thereto in an amount of 100 μL/well, and the plate was left standing at 4° C. for 1 hour. The cells were washed twice with PBS containing 5% FBS. Then, R-Phycoerythrin AffiniPure F(ab′)2 Fragment Goat Anti-Human IgG, Fcγ Fragment Specific (Jackson ImmunoResearch Laboratories, Inc.) diluted 100-fold with PBS containing 5% FBS was added thereto in an amount of 100 μL/well, and the plate was left standing at 4° C. for 1 hour. The cells were washed twice with PBS containing 5% FBS and then resuspended in PBS containing 5% FBS, followed by detection using a flow cytometer (FACSCanto™ II; Becton, Dickinson and Company). The data was analyzed using Flowjo (Tree Star, Inc.). The PE fluorescence intensity of the cell fraction was plotted to a histogram, and the mean fluorescence intensity (MFI) was calculated. The MFI value of the control antibody was subtracted from the MFI value of the GPRC5D antibody to calculate a relative value of MFI (rMFI).

T1 sequence (Q9NZD1 whole entry): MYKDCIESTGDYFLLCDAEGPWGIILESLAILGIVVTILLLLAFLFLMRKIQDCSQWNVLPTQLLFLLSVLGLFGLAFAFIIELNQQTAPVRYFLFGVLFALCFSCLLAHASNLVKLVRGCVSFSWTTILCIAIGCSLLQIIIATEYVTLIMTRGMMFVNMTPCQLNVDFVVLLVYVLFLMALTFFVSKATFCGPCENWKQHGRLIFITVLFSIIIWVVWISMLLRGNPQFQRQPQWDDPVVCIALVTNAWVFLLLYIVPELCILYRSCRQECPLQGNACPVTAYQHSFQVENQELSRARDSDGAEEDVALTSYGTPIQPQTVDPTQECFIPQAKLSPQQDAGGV

binding result	Binder
binds	humanized anti-GPRC5D antibody h2B1_H2/L2 (antibody, human IgG1, kappa, V domains shown, Human IgG1 / kappa) VH: QVQLVESGGGLVKPSQTLSLTCTFSGFSLNTYDMGVGWIRQPPGKGLEWIGNIWWDDDKYYNPSLKSRVTISKDTSNNQASLKLSSVTAADTAVYYCARIETVRVSRKGFAHWGQGTLVTVSS VL: DTVMTQSPDSLAVSLGERATINCKASQSVGINVDWYQQKPGQPPKLLIYGASNRHTGVPDRFSGSGFGTDFTLTISSLQAEDVAVYYCLQHGSIPPTFGQGTKVEIKR
binds	humanized anti-GPRC5D antibody h2B1_H3/L4 (antibody, human IgG1, kappa, V domains shown, Human IgG1 / kappa) VH: QVQLVESGGGLVKPSQTLSLTCTFSGFSLNTYDMGVGWIRQPPGKGLEWIANIWWDDDKYYNPSLKSRVTISKDTSNNQASLKLSSVTAADTAVYYCARIETVRVSRKGFAHWGQGTLVTVSS VL: DTVMTQSPDSLAVSLGERATINCKASQSVGINVDWYQQKPGQSPKLLIYGASNRHTGVPDRFSGSGFGRDFTLTISSLQAEDVAVYYCLQHGSIPPTFGQGTKVEIKR
binds	humanized anti-GPRC5D antibody h2B1_H4/L4 (antibody, human IgG1, kappa, V domains shown, Human IgG1 / kappa) VH: QVTLKESGPALVKPTQTLTLTCTFSGFSLNTYDMGVGWIRQPPGKGLEWLANIWWDDDKYYSPSLKSRLTITKDTSNNQAVLTMTNMDPVDTATYYCARIETVRVSRKGFAHWGQGTLVTVSS VL: DTVMTQSPDSLAVSLGERATINCKASQSVGINVDWYQQKPGQSPKLLIYGASNRHTGVPDRFSGSGFGRDFTLTISSLQAEDVAVYYCLQHGSIPPTFGQGTKVEIKR

Second part, the binder before the results:

Binder	binding result
humanized anti-GPRC5D antibody h2B1_H4/L5 (antibody, human IgG1, kappa, V domains shown, Human IgG1 / kappa) VH: QVTLKESGPALVKPTQTLTLTCTFSGFSLNTYDMGVGWIRQPPGKGLEWLANIWWDDDKYYSPSLKSRLTITKDTSNNQAVLTMTNMDPVDTATYYCARIETVRVSRKGFAHWGQGTLVTVSS VL: ATRMTQSPSSFSASTGDRVTITCKASQSVGINVDWYQQKPGKSPKLLIYGASNRHTGVPSRFSGSGFGRDFTLTISSLQSEDFATYYCLQHGSIPPTFGGGTKVEIKR	binds
humanized anti-GPRC5D antibody h2B1_H2/L3 (antibody, human IgG1, kappa, V domains shown, Human IgG1 / kappa) VH: QVQLVESGGGLVKPSQTLSLTCTFSGFSLNTYDMGVGWIRQPPGKGLEWIGNIWWDDDKYYNPSLKSRVTISKDTSNNQASLKLSSVTAADTAVYYCARIETVRVSRKGFAHWGQGTLVTVSS VL: DTVMTQSPDSLAVSLGERATINCKASQSVGINVDWYQQKPGQPPKLLIYGASNRHTGVPDRFSGSGFGRDFTLTISSLQAEDVAVYYCLQHGSIPPTFGQGTKVEIKR	binds
humanized anti-GPRC5D antibody h2B1_H4/L3 (antibody, human IgG1, kappa, V domains shown, Human IgG1 / kappa) VH: QVTLKESGPALVKPTQTLTLTCTFSGFSLNTYDMGVGWIRQPPGKGLEWLANIWWDDDKYYSPSLKSRLTITKDTSNNQAVLTMTNMDPVDTATYYCARIETVRVSRKGFAHWGQGTLVTVSS VL: DTVMTQSPDSLAVSLGERATINCKASQSVGINVDWYQQKPGQPPKLLIYGASNRHTGVPDRFSGSGFGRDFTLTISSLQAEDVAVYYCLQHGSIPPTFGQGTKVEIKR	binds
humanized anti-GPRC5D antibody h2B1_H2/L5 (antibody, human IgG1, kappa, V domains shown, Human IgG1 / kappa) VH: QVQLVESGGGLVKPSQTLSLTCTFSGFSLNTYDMGVGWIRQPPGKGLEWIGNIWWDDDKYYNPSLKSRVTISKDTSNNQASLKLSSVTAADTAVYYCARIETVRVSRKGFAHWGQGTLVTVSS VL: ATRMTQSPSSFSASTGDRVTITCKASQSVGINVDWYQQKPGKSPKLLIYGASNRHTGVPSRFSGSGFGRDFTLTISSLQSEDFATYYCLQHGSIPPTFGGGTKVEIKR	binds
humanized anti-GPRC5D antibody h2B1_H2/L4 (antibody, human IgG1, kappa, V domains shown, Human IgG1 / kappa) VH: QVQLVESGGGLVKPSQTLSLTCTFSGFSLNTYDMGVGWIRQPPGKGLEWIGNIWWDDDKYYNPSLKSRVTISKDTSNNQASLKLSSVTAADTAVYYCARIETVRVSRKGFAHWGQGTLVTVSS VL: DTVMTQSPDSLAVSLGERATINCKASQSVGINVDWYQQKPGQSPKLLIYGASNRHTGVPDRFSGSGFGRDFTLTISSLQAEDVAVYYCLQHGSIPPTFGQGTKVEIKR	binds
humanized anti-GPRC5D antibody h2B1_H3/L3 (antibody, human IgG1, kappa, V domains shown, Human IgG1 / kappa) VH: QVQLVESGGGLVKPSQTLSLTCTFSGFSLNTYDMGVGWIRQPPGKGLEWIANIWWDDDKYYNPSLKSRVTISKDTSNNQASLKLSSVTAADTAVYYCARIETVRVSRKGFAHWGQGTLVTVSS VL: DTVMTQSPDSLAVSLGERATINCKASQSVGINVDWYQQKPGQPPKLLIYGASNRHTGVPDRFSGSGFGRDFTLTISSLQAEDVAVYYCLQHGSIPPTFGQGTKVEIKR	binds
humanized anti-GPRC5D antibody h2B1_H4/L1 (antibody, human IgG1, kappa, V domains shown, Human IgG1 / kappa) VH: QVTLKESGPALVKPTQTLTLTCTFSGFSLNTYDMGVGWIRQPPGKGLEWLANIWWDDDKYYSPSLKSRLTITKDTSNNQAVLTMTNMDPVDTATYYCARIETVRVSRKGFAHWGQGTLVTVSS VL: DTVMTQSPDSLAVSLGERATINCKASQSVGINVDWYQQKPGQPPKLLIYGASNRHTGVPDRFSGSGSGRDFTLTISSLQAEDVAVYYCLQHGSIPPTFGQGTKVEIKR	binds
humanized anti-GPRC5D antibody h2B1_H3/L5 (antibody, human IgG1, kappa, V domains shown, Human IgG1 / kappa) VH: QVQLVESGGGLVKPSQTLSLTCTFSGFSLNTYDMGVGWIRQPPGKGLEWIANIWWDDDKYYNPSLKSRVTISKDTSNNQASLKLSSVTAADTAVYYCARIETVRVSRKGFAHWGQGTLVTVSS VL: ATRMTQSPSSFSASTGDRVTITCKASQSVGINVDWYQQKPGKSPKLLIYGASNRHTGVPSRFSGSGFGRDFTLTISSLQSEDFATYYCLQHGSIPPTFGGGTKVEIKR	binds
humanized anti-GPRC5D antibody h2B1_H1/L1 (antibody, human IgG1, kappa, V domains shown, Human IgG1 / kappa) VH: QVQLVESGGGLVKPSQTLSLTCTFSGFSLNTYDMGVGWIRQPPGKGLEWIGNIWWDDDKYYNPSLKSRVTISVDTSKNQASLKLSSVTAADTAVYYCARIETVRVSRKGFAHWGQGTLVTVSS VL: DTVMTQSPDSLAVSLGERATINCKASQSVGINVDWYQQKPGQPPKLLIYGASNRHTGVPDRFSGSGSGRDFTLTISSLQAEDVAVYYCLQHGSIPPTFGQGTKVEIKR	binds

target: T1, human GPRC5D; assay: flow cytometry on A4/Fuk cells (endogenous human GPRC5D), Penta-His Alexa Fluor 488 detection, rMFI = MFI minus sample without antibody
Method: Lymphoma cell line A4/Fuk cells (JCRB Cell Bank) were adjusted to an appropriate concentration with PBS containing 5% FBS. LIVE/DEAD Fixable Near-IR Dead Cell Stain Kit was added to the cells, which were then left standing at 4° C. for 30 minutes. The cells were washed twice with PBS containing 5% FBS, then adjusted to a concentration of 1×10⁶ cells/mL with PBS containing 5% FBS, inoculated in an amount of 100 μL/well to a 96-well U-bottomed microplate, and centrifuged to remove a supernatant. Each anti-GPRC5D-anti-CD3 bispecific molecule (C2037-C3E7034 to C3022-C3E7036 prepared in Example 12) diluted with PBS containing 5% FBS were added thereto in an amount of 100 μL/well, and the plate was left standing at 4° C. for 60 minutes. The cells were washed twice with PBS containing 5% FBS. Then, Penta-His Alexa Fluor 488 diluted with PBS containing 5% FBS was added thereto in an amount of 30 μL/well, and the plate was left standing at 4° C. for 30 minutes. The cells were washed twice with PBS containing 5% FBS and then resuspended in PBS containing 5% FBS, followed by detection using a flow cytometer (FACSCanto™ II). The data was analyzed using Flowjo. The mean fluorescence intensity (MFI) of Alexa Fluor 488 in a fraction free from dead cells was calculated. The MFI value of the antibody-unsupplemented sample was subtracted from the MFI value of the antibody-supplemented sample to calculate a relative value of MFI (rMFI).

binding result	Binder
binds	anti-GPRC5D-anti-CD3 bispecific molecule C3048-C3E7035 (bispecific antibody, Tandem scFv) scFv: GQVQLVQSGAEVKKPGSSVKVSCKASGGTFSRYAISWVRQAPGQGLEWMGGIIPIFGTANYAQKFQGRVTITADQSTRTAYMDLGRLRSEDTAVYYCALEGFRDSLKRNPFDIWGQGTMVTVSSGGGGSGGGGSGGGGSQSVVTQPPSVSAAPGQKVTISCSGGTTNIGSNYVSWYQQLPGTAPKFLMYENNKRPSGIPDRFSGSKSGTSATLAITGLQTGDEATYYCSTWDSSLNTGLFGGGTKLTVLGGGGSEVQLVESGGGLVQPGGSLRLSCAASGVTFNYYGMSWIRQAPGKGLEWVASITNSGGRIYYPDSVKGRFTISRENTQKTLYLQMNSLRAEDTAVYYCTLDGRDGWVAYWGQGTLVTVSSGGGGSGGGGSGGGGSMAQAVLTQPSSVSGVPGQRVTISCKRNTGNIGSNYVNWYQQLPGTAPKLLIYRDDKRPSGVPDRFSGSKSGTSASLAITGFQAEDEADYYCQSYSSGFIFGGGTKLTVLGAAAGAGGDYKDDDDKGAAAHHHHHH
binds	anti-GPRC5D-anti-CD3 bispecific molecule C3022-C3E7035 (bispecific antibody, Tandem scFv) scFv: GQVQLVQSGAEVKKPGASVKVSCKASGYTFTGYYMHWVRQAPGQGLEWMGRINPNSGGTNYAQKFQGRVTMTRDTSISTAYMELSGLRSDDTAVYYCASGSVRHPWGQGTLVTVSSGGGGSGGGGSGGGGSQPVLTQPPSASGTPGQRVTISCSGSRSNIGGNIVSWYQQFPGTAPRLLTYADNQRPSGVPDRFSGSKSGTSASLAISGLQSEDEADYYCAAWDDSLNGVVFGGGTKLTVLGGGGSEVQLVESGGGLVQPGGSLRLSCAASGVTFNYYGMSWIRQAPGKGLEWVASITNSGGRIYYPDSVKGRFTISRENTQKTLYLQMNSLRAEDTAVYYCTLDGRDGWVAYWGQGTLVTVSSGGGGSGGGGSGGGGSMAQAVLTQPSSVSGVPGQRVTISCKRNTGNIGSNYVNWYQQLPGTAPKLLIYRDDKRPSGVPDRFSGSKSGTSASLAITGFQAEDEADYYCQSYSSGFIFGGGTKLTVLGAAAGAGGDYKDDDDKGAAAHHHHHH
